Source: US20230364248A1 (Novo Nordisk, published 2023)

Target: full length MIC-1 receptor (hGFRAL) and its full signaling co-receptor hRET51, stably expressed in BHK21 cells (human, UniProt Q6UXV0 19-394; P07949 29-1114)
Assay: cell-based or functional assay

Sequence of full length MIC-1 receptor (hGFRAL) and its full signaling co-receptor hRET51, stably expressed in BHK21 cells (Q6UXV0 19-394, chain 1 of 2): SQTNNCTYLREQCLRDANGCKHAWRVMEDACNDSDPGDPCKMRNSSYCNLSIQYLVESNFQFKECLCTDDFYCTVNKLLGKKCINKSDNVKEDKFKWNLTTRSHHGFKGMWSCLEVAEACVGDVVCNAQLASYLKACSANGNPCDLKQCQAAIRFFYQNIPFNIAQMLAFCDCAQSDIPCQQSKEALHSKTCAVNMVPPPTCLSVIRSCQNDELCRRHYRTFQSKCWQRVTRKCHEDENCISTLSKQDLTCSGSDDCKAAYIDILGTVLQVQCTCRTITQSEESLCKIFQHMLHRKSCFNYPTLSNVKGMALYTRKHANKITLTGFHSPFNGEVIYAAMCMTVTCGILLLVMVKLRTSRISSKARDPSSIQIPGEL
Sequence of full length MIC-1 receptor (hGFRAL) and its full signaling co-receptor hRET51, stably expressed in BHK21 cells (P07949 29-1114, chain 2 of 2): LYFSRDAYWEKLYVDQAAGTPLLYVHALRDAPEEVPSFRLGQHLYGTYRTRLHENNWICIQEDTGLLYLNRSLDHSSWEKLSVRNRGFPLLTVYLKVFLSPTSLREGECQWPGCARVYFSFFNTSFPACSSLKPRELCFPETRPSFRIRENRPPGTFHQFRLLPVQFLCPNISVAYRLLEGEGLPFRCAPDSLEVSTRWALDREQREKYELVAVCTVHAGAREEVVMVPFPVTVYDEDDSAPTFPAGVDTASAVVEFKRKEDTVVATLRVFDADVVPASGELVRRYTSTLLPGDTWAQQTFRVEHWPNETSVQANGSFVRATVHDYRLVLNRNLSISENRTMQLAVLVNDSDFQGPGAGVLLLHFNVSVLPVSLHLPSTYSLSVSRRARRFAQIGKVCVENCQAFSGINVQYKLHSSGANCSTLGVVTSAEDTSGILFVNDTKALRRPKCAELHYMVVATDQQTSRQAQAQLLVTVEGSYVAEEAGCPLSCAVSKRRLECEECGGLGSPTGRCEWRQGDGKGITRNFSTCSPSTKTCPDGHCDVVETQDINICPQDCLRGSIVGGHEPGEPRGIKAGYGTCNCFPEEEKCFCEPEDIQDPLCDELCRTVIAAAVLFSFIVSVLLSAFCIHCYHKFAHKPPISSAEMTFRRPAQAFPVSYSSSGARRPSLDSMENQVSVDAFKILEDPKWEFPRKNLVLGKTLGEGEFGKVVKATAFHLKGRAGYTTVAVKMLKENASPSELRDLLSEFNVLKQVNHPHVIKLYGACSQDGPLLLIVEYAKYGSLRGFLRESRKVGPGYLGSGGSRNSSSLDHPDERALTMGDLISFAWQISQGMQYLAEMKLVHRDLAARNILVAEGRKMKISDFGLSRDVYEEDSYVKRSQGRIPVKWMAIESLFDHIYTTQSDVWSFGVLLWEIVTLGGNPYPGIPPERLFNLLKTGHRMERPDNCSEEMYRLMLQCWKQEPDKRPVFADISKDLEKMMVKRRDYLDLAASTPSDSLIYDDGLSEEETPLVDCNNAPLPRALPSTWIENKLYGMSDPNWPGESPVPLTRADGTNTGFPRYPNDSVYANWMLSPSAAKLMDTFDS

Emax: 100%
B1: MIC-1 (SEQ ID NO: 1) (ligand)
chain: ARNGDHCPLGPGRCCRLHTVRASLEDLGWADWVLSPREVQVTMCIGACPSQFRAANMHAQIKTSLHRLKPDTVPAPCCVPASYNPMVLIQKTDTGVSLQTYDDLLAKDCHCI
